T1: Avi/HisMsIL18BPd (recombinant mouse IL-18BP with Avi and poly-His tags) (mouse, biotinylated with BirA on the Avi tag in some assays)
T1 chain: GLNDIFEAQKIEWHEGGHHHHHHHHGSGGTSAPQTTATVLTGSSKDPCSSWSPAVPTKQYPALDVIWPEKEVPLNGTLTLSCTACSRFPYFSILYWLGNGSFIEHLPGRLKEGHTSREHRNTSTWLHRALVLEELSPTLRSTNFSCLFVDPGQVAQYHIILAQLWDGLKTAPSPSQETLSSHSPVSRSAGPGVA

T2: Avi/His-HuIL18BPa (recombinant human IL-18BP isoform A with Avi and poly-His tags) (human, biotinylated with BirA on the Avi tag in some assays)
T2 chain: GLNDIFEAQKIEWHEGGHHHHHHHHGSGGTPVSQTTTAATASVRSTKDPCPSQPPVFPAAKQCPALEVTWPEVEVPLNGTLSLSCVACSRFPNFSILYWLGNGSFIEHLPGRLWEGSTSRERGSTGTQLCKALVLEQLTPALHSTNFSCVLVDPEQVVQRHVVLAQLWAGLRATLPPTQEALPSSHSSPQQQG

T3: His/Avi-CynoIL18BP (recombinant cynomolgus IL-18BP with His and Avi tags) (cynomolgus monkey)
T3 construct: also called cynomolgus IL-18BP-Avi-His
T3 chain: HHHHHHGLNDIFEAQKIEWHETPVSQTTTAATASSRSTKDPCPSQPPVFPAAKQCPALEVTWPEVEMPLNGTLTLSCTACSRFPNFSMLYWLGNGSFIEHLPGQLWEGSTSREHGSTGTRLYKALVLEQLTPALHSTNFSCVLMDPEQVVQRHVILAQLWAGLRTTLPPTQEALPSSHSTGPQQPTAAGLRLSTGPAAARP


How the values were obtained:
[1] = biological target: T1, Avi/HisMsIL18BPd (recombinant mouse …); assay: cell-based or functional assay
[2] = biological target: T2, Avi/His-HuIL18BPa (recombinant human …); assay: cell-based or functional assay
[3] = biological target: T2, Avi/His-HuIL18BPa (recombinant human …); assay: SPR Biacore T200, IgG captured on Protein A/G
[4] = biological target: T3, His/Avi-CynoIL18BP (recombinant …); assay: SPR Biacore T200, IgG captured on Protein A/G

Binder | EC50 of IFNγ release, mouse splenocytes [1] [nM] | EC50 of IFNγ release, human PBMCs [2] [nM] | also measured
anti-IL-18BP antibody variant BP-04.04 (antibody, V domains shown) VH: QVQLVQSGAEVKKPGASVKVSCKASGYTFTDYDMHWVRQAPGQGLEWMGIISTYYGDVSYAQKKQGRVTMTRDKSTSTVYMELSSLRSEDTAVYYCARSGTYNYGTRESHPLDYWGQGTLVTVSS VL: DIQMTQSPSSVSASVGDRVTITCRASDNVYSNLAWYQQKPGKAPKLLIYGAISLADGVPSRFSGSGSGTDFTLTISSLQPEDFATYYCQHFWGNPYTFGQGTKLEIK | 31.8 | 18.6 | 
anti-IL-18BP antibody variant BP-04.13 (antibody, V domains shown) VH: QVQLVQSGAEVKKPGASVKVSCKASGYTFTDYDMHWVRQAPGQGLEWMGIISTYYGDVSYAQKFQGRVTMTRDKSTSTVYMELSSLRSEDTAVYYCARSGTYYYGTRESHPFDYWGQGTLVTVSS VL: DIQMTQSPSSVSASVGDRVTITCRASDNVYSNLAWYQQKPGKAPKLLIYGAISLADGVPSRFSGSGSGTDFTLTISSLQPEDFATYYCQHFWGNPYTFGQGTKLEIK | 41.4 | 16.6 | 
anti-IL-18BP antibody variant BP-04.10 (antibody, V domains shown) VH: QVQLVQSGAEVKKPGASVKVSCKASGYTFTDYDMHWVRQAPGQGLEWMGIYSTYYGVVSYAQKFQGRVTMTRDKSTSTVYMELSSLRSEDTAVYYCARSGTYYYGTRESHPLDYWGQGTLVTVSS VL: DIQMTQSPSSVSASVGDRVTITCRASDNVYSNLAWYQQKPGKAPKLLIYGAISLADGVPSRFSGSGSGTDFTLTISSLQPEDFATYYCQHFWGNPYTFGQGTKLEIK | 501 | 10.5 | 
anti-IL-18BP antibody variant BP-04.19 (antibody, V domains shown) VH: QVQLVQSGAEVKKPGASVKVSCKASGYTFTDYDMHWVRQAPGQGLEWMGIISTYYGVVSYAQKFQGRVTMTRDKSTSTVYMELSSLRSEDTAVYYCARSGTYYYGTRESHAFDYWGQGTLVTVSS VL: DIQMTQSPSSVSASVGDRVTITCRASDNVYSNLAWYQQKPGKAPKLLIYGAISLADGVPSRFSGSGSGTDFTLTISSLQPEDFATYYCQHFWGNPYTFGQGTKLEIK | 21.6 | 3.1 | 
anti-IL-18BP antibody variant BP-04.17 (antibody, V domains shown) VH: QVQLVQSGAEVKKPGASVKVSCKASGYTFTDYDMHWVRQAPGQGLEWMGIISTYYGDVSYAQKKQGRVTMTRDKSTSTVYMELSSLRSEDTAVYYCARSGTYYYGTRESHPLDYWGQGTLVTVSS VL: DIQMTQSPSSVSASVGDRVTITCRASDNVYSNLAWYQQKPGKAPKLLIYGAISLADGVPSRFSGSGSGTDFTLTISSLQPEDFATYYCQHFWGNPYTFGQGTKLEIK | 14.6 | 8.89 | 
anti-IL-18BP antibody variant BP-04.18 (antibody, V domains shown) VH: QVQLVQSGAEVKKPGASVKVSCKASGYTFTDYDMHWVRQAPGQGLEWMGIISTYYGDVSYAQKKQGRVTMTRDKSTSTVYMELSSLRSEDTAVYYCARSGTYNYGTRESHALDYWGQGTLVTVSS VL: DIQMTQSPSSVSASVGDRVTITCRASDNVYSNLAWYQQKPGKAPKLLIYGAISLADGVPSRFSGSGSGTDFTLTISSLQPEDFATYYCQHFWGNPYTFGQGTKLEIK | 28.4 | 11.3 | 
anti-IL-18BP antibody variant BP-04.30 (antibody, V domains shown) VH: QVQLVQSGAEVKKPGASVKVSCKASGYTFTDYDMHWVRQAPGQGLEWMGIISTYYGDVSYAQKKQGRVTMTRDKSTSTVYMELSSLRSEDTAVYYCARSGTYYYGTRESHALDYWGQGTLVTVSS VL: DIQMTQSPSSVSASVGDRVTITCRASDNVYSNLAWYQQKPGKAPKLLIYGAISLADGVPSRFSGSGSGTDFTLTISSLQPEDFATYYCQHFWGNPYTFGQGTKLEIK | 7.43 |  | 
anti-IL-18BP antibody variant BP-04.21 (antibody, V domains shown) VH: QVQLVQSGAEVKKPGASVKVSCKASGYTFTDYDMHWVRQAPGQGLEWMGIISTYYGVVSYAQKFQGRVTMTRDKSTSTVYMELSSLRSEDTAVYYCARSGTYNYGTRESHALDYWGQGTLVTVSS VL: DIQMTQSPSSVSASVGDRVTITCRASDNVYSNLAWYQQKPGKAPKLLIYGAISLADGVPSRFSGSGSGTDFTLTISSLQPEDFATYYCQHFWGNPYTFGQGTKLEIK | 595 | 4.48 | 
anti-IL-18BP antibody variant BP-04.06 (antibody, V domains shown) VH: QVQLVQSGAEVKKPGASVKVSCKASGYTFTDYDMHWVRQAPGQGLEWMGIISTYYGVVSYAQKKQGRVTMTRDKSTSTVYMELSSLRSEDTAVYYCARSGTYYYGTRESHPLDYWGQGTLVTVSS VL: DIQMTQSPSSVSASVGDRVTITCRASDNVYSNLAWYQQKPGKAPKLLIYGAISLADGVPSRFSGSGSGTDFTLTISSLQPEDFATYYCQHFWGNPYTFGQGTKLEIK | 67.6 | 1.32 | 
anti-IL-18BP antibody variant BP-04.11 (antibody, V domains shown) VH: QVQLVQSGAEVKKPGASVKVSCKASGYTFTDYDMHWVRQAPGQGLEWMGIYSTYYGVVSYAQKFQGRVTMTRDKSTSTVYMELSSLRSEDTAVYYCARSGTYNYGTRESHALDYWGQGTLVTVSS VL: DIQMTQSPSSVSASVGDRVTITCRASDNVYSNLAWYQQKPGKAPKLLIYGAISLADGVPSRFSGSGSGTDFTLTISSLQPEDFATYYCQHFWGNPYTFGQGTKLEIK | 3.61 | 3.94 | 
anti-IL-18BP antibody variant BP-04.31 (antibody, V domains shown) VH: QVQLVQSGAEVKKPGASVKVSCKASGYTFTDYDMHWVRQAPGQGLEWMGIISTYYGVVSYAQKFQGRVTMTRDKSTSTVYMELSSLRSEDTAVYYCARSGTYYYGTRESHALDYWGQGTLVTVSS VL: DIQMTQSPSSVSASVGDRVTITCRASDNVYSNLAWYQQKPGKAPKLLIYGAISLADGVPSRFSGSGSGTDFTLTISSLQPEDFATYYCQHFWGNPYTFGQGTKLEIK |  | 6.3 | 
anti-IL-18BP antibody variant BP-04.12 (antibody, V domains shown) VH: QVQLVQSGAEVKKPGASVKVSCKASGYTFTDYDMHWVRQAPGQGLEWMGIYSTYYGVVSYAQKKQGRVTMTRDKSTSTVYMELSSLRSEDTAVYYCARSGTYYYGTRESHALDYWGQGTLVTVSS VL: DIQMTQSPSSVSASVGDRVTITCRASDNVYSNLAWYQQKPGKAPKLLIYGAISLADGVPSRFSGSGSGTDFTLTISSLQPEDFATYYCQHFWGNPYTFGQGTKLEIK | 0.865 | 31.9 | 
anti-IL-18BP antibody variant BP-04.16 (antibody, V domains shown) VH: QVQLVQSGAEVKKPGASVKVSCKASGYTFTDYDMHWVRQAPGQGLEWMGIISTYYGDVSYAQKKQGRVTMTRDKSTSTVYMELSSLRSEDTAVYYCARSGTYYYGTRESHAFDYWGQGTLVTVSS VL: DIQMTQSPSSVSASVGDRVTITCRASDNVYSNLAWYQQKPGKAPKLLIYGAISLADGVPSRFSGSGSGTDFTLTISSLQPEDFATYYCQHFWGNPYTFGQGTKLEIK | 220 | 3.34 | 
anti-IL-18BP antibody variant BP-04.01 (antibody, V domains shown) VH: QVQLVQSGAEVKKPGASVKVSCKASGYTFTDYDMWVRQAPGQGLEWMGIISTYYGDVSYAIKFQGRVTMTRDKSTSTVYMELSSLRSEDTAVYYCARSGTYYYGTRESALDYWGQGTLVTVSS VL: DIQMTQSPSSVSASVGDRVTITCRASDNVYSNLAWYQQKPGKAPKLLIYGAISLADGVPSRFSGSGSGTDFTLTISSLQPEDFATYYCQHFWGNPYTFGQGTKLEIK | 1.67 |  | 
anti-IL-18BP antibody variant BP-04.14 (antibody, V domains shown) VH: QVQLVQSGAEVKKPGASVKVSCKASGYTFTDYDMHWVRQAPGQGLEWMGIISTYYGDVSYAQKFQGRVTMTRDKSTSTVYMELSSLRSEDTAVYYCARSGTYNYGTRESHAFDYWGQGTLVTVSS VL: DIQMTQSPSSVSASVGDRVTITCRASDNVYSNLAWYQQKPGKAPKLLIYGAISLADGVPSRFSGSGSGTDFTLTISSLQPEDFATYYCQHFWGNPYTFGQGTKLEIK | 21.2 | 543 | 
anti-IL-18BP antibody variant BP-04.20 (antibody, V domains shown) VH: QVQLVQSGAEVKKPGASVKVSCKASGYTFTDYDMHWVRQAPGQGLEWMGIISTYYGVVSYAQKFQGRVTMTRDKSTSTVYMELSSLRSEDTAVYYCARSGTYYYGTRESHPLDYWGQGTLVTVSS VL: DIQMTQSPSSVSASVGDRVTITCRASDNVYSNLAWYQQKPGKAPKLLIYGAISLADGVPSRFSGSGSGTDFTLTISSLQPEDFATYYCQHFWGNPYTFGQGTKLEIK | 28.7 | 4.06 | 
anti-IL-18BP antibody variant BP-04.24 (antibody, V domains shown) VH: QVQLVQSGAEVKKPGASVKVSCKASGYTFTDYDMHWVRQAPGQGLEWMGIYSTYYGDVSYAQKFQGRVTMTRDKSTSTVYMELSSLRSEDTAVYYCARSGTYYYGTRESHPLDYWGQGTLVTVSS VL: DIQMTQSPSSVSASVGDRVTITCRASDNVYSNLAWYQQKPGKAPKLLIYGAISLADGVPSRFSGSGSGTDFTLTISSLQPEDFATYYCQHFWGNPYTFGQGTKLEIK |  | 4.84 | Kd [3]: 16 nM; koff [3]: 0.0047 s⁻¹; kon [3]: 290000 M⁻¹ s⁻¹; Kd [4]: 29 nM; koff [4]: 0.0059 s⁻¹; kon [4]: 200000 M⁻¹ s⁻¹
